Test results: the Human Domainome abundance scans (Beltran et al. 2025)

B1: Cyclin-F, residues 28 to 80; numbered along this chain, P41002 (parent)
chain: RNLTILSLPEDVLFHILKWLSVEDILAVRAVHSQLKDLVDNHASVWACASFQE

Variants of: B1
Assay: abundance fitness (aPCA) (normalised: wild type 0, dead -1); higher = more abundant; growth selection in yeast, the domain comes from the species named
Conditions: Homo sapiens

Abundance fitness: each site, then its substitutions
E23: C -0.627, K -0.105, N -0.319, D 0.057, R -0.001
Q52: Y -0.382, C -0.213, V -0.123, M -0.256, I -0.109, D -0.296, W -0.19, E -0.39
V31: H -0.976, R -0.754, M -0.681
W46: V -0.415, F -0.364, E -0.016, L -0.114, N -0.128, P -0.386, K -0.289
D11: W -0.731, G -0.104, Y -0.556, F -0.823, M -0.488, V -0.269
D40: K -0.805, M -0.884, N -0.664, P -0.791, L -0.919, W -1.03
A30: I -0.264, S 0.111, T -0.04, M 0.188, Q -0.031
R29: Q -0.801, T -0.909, Y -0.713
F14: G -0.293, D -0.762, M 0.181, R 0.056, E -0.074, T 0.061, C -0.162
N2: S -0.129, A -0.492, K -0.182, I -0.618, F -0.407
Q34: P -0.807, V -0.126, I -0.129, T 0.004, H -0.121, Y -0.374, F -0.4, A -0.111, L -0.368, W -0.753
S33: Y -0.791, N -0.67, T -0.247, C -0.828
L17: D -0.868, S -0.896, Q -0.782, F 0.056, R -0.774, C -0.223
V22: R -0.177, A -0.142, I 0.005, Q -0.267, D -0.405
T4: Q -0.481, G -0.068, A -0.768, N -0.046, E -0.605
R1: K 0.091, G -0.193, I 0.032, M -0.359, W -0.914, S 0.016
K18: I -0.449, R -0.14, D -0.483, P -0.72, L -0.553, N -0.107
D37: I 0.228, A 0.027, L 0.03, G -0.044, S 0.006, K 0.356
D24: F -1.06, T -0.68, R -0.797, V -0.784, L -0.718, M -0.595
L6: Y -0.423, R -0.83, E -0.889, H -0.691, D -0.593, S -0.885, C -0.695, V -0.665
V12: M -0.924, D -0.816, A -0.816, H -0.732, K -1.07, F -1.02, Y -0.846
V39: W -0.648, P -0.931, K -0.767, I -0.074, C -0.245, A -0.341, R -0.793, L -0.287, F -0.819
P9: G -0.413, F -0.621, E -0.646, Q -0.735, I -0.847
L3: E -0.727, Y 0.109, R -0.134, Q -0.863, M -0.276, C -0.316, T -0.437
S44: A -0.119, K -0.104, V -0.535
S50: F -0.668, K -0.03, T -0.166, P -0.1, E -0.114, Q 0.105
L13: E -0.81, G -0.692, D -0.644, F 0.091, R -0.633, V -0.141, W -0.204
L8: V -0.915, T -0.651, Q -0.925
F51: R -0.187, V -0.034, M 0.085, H -0.123, P -0.184, I -0.111
S21: N -0.148, P -0.047, M -0.815, D 0.135, Y -0.566, K -0.272, R -0.157
L20: F -1.01, P -0.893, D -0.675, E -0.982, W -0.747, I -0.673, T -0.923
W19: P -0.458, C 0.229, K 0.218, D -0.137, N 0.223
S7: P -0.767, M -0.195, A -0.427, F -0.547, C -0.316, E -0.27, T -0.381
A49: I -0.409, R 0.037, G 0.089, H -0.091, M -0.51, F -0.663, Q 0.088
V28: C -0.173, H -0.372, D -0.885, T -0.615, M 0.036, E -0.82, L 0.168, S -0.823, I -0.184
A43: L -0.605, G -0.409, W -0.264, C -0.006, P -0.039, V -0.616
I5: Y -0.544, H -0.771, K -0.758, A -0.657
H42: N -0.35, S -0.347, F -0.418, M -0.64, P -0.526, A -0.442, L -0.546, E -0.8, W -0.45
H32: S 0.096, E -0.653, T -0.503, C 0.209
L26: D -0.961, V -0.452, K -0.043, M -0.183, C -0.256, F -0.424, G -0.451, P -0.694
H15: L -0.204, P -0.731, N 0.226, T -0.455, C -0.091, R 0.222, W -0.561, M -0.116
K36: T -0.723, S -0.788, G -0.891, E -0.771, N -0.779, F -0.811
A27: E -0.715, F -0.945, R -0.047, H -0.259, C -0.091, I -0.285, Y -0.876, M -0.273
I25: R -0.534, P -0.806, D -0.83, H -0.82, T -0.703, L -0.33, E -0.809
L35: V -0.768, P -0.842, W -0.567, R -0.884, F -0.172
V45: N 0.031, F -0.016, R -0.031, D 0.289, H 0.137, L -0.076, S 0.149
C48: Q -0.246, P 0.42, M -0.238
A47: W -0.374, T -0.43, G 0.193, R -0.14, Y -0.458, L -0.235, M -0.095, S -0.114, C -0.218
E53: T -0.349, L -0.543, Q -0.051, D -0.178, C -0.527, M -0.39, V -0.538, I -0.533, P -0.375
L38: H -0.12, T -0.133, N -0.906, G -0.561, S -0.302, M -0.008, Y -0.151
E10: G -0.566, P -0.357, V -0.524, T -0.35, I -0.576, C -0.585, K 0.24
N41: R 0.241, D -0.435, W -0.733, I -0.455, E -0.039, V -0.484, T -0.131
I16: L -0.646, S -0.664, R -0.501, G -0.701, A -0.901, P -0.673, T -0.805, K -1.11
